Results from article PMC3017776, “Coordinated transcriptional regulation of two key genes in the lignin branch pathway - CAD and CCR - is mediated through MYB- binding sites”.
Residue numbers refer to the chain shown, from its start.

B1: EgCAD2 [-203/-129] mutated MYBb (dsDNA)
DNA 1: TGGGAATGGCTAAAAAGCAAGTCTTGACCCTTAACCCACCCCACTGGTTCACCTACCGCACCTCTGAGATCTTATTGCTTGCTGAG
DNA 2: CTCAGCAAGCAATAAGATCTCAGAGGTGCGGTAGGTGAACCAGTGGGGTGGGTTAAGGGTCAAGACTTGCTTTTTAGCCATTCCCA
B2: EgCAD2 [-203/-129] mutated MYBa (dsDNA)
DNA 1: TGGGAATGGCTAAAAAGCAAGTCTTGACCCTTAACCCACCCCACTGGTTCAGTCGACGCACCTCTGGTTAGGTATTGCTTGCTGAG
DNA 2: CTCAGCAAGCAATACCTAACCAGAGGTGCGTCGACTGAACCAGTGGGGTGGGTTAAGGGTCAAGACTTGCTTTTTAGCCATTCCCA
B3: EgCAD2 [-203/-129] mutated MYBa + MYBb (dsDNA)
DNA 1: B1 DNA 1 with C52G, C53T, T54C, A55G, C56A
DNA 2: B1 DNA 2 with G31T, T32C, A33G, G34A, G35C
B4: EgCCR [-119/-70] mutated MYB (dsDNA)
DNA 1: CCTTATAGGGGAGCGGGTCATTTCATGCGGTTCTAGAGTCTTGGTAAACATTGTC
DNA 2: GACAATGTTTACCAAGACTCTAGAACCGCATGAAATGACCCGCTCCCCTATAAGG

The binders below were run against EgMYB2 (R2R3 MYB factor) (UniProt Q70KC5 1-321) (assay: EMSA; EMSA: 25 mM Tris-HCl pH 8, 250 mM NaCl, 10% glycerol, 7 mM beta-mercaptoethanol, 2 ug poly(dIdC), 25 ul, 30 min, room temperature; 0.125 ug EgMYB2; 4.8% PAGE in 0.5x TBE, 2.5% glycerol). Conditions: protein: recombinant; tags: GST (N-terminal, pGEX-5X-1); label: 32P; blunt.
EgMYB2 (R2R3 MYB factor), sequence (Q70KC5 entry or part of it): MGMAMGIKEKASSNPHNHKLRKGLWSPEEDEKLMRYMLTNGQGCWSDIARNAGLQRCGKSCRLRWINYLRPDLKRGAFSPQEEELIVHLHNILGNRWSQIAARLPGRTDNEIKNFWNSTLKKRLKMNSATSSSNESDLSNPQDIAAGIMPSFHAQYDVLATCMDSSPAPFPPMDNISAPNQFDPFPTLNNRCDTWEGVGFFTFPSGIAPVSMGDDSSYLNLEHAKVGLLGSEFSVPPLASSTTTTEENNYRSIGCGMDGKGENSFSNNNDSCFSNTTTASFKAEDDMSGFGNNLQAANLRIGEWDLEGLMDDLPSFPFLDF

Binder | binding result
B1 | no binding
B2 | no binding
B3 | no binding
B4 | no binding
